Source: paper PMC4593522, “Development of a Radiolabeled Peptide-Based Probe Targeting MT1-MMP for Breast Cancer Detection” (PLoS ONE, 2015)
Read-outs that look alike come from different tables or passages of the source. Square brackets hold non-standard residues; d marks the D form. Peptide text beside a SMILES is read from it. * marks the point of attachment. HYNIC = NNc1ccc(C(=O)*)cn1; AEEA = NCCOCCOCC(=O)O

How the values were obtained:
[1] = In vitro solution stability in the presence of excess cysteine (radio-HPLC); format: physicochemical; details: 1 mg/mL cysteine, pH = 7.4, 37°C, mean ± SD
Experimental: HYNIC-AF7p solution (20 μL, 60 μg/mL in H2O), of tricine solution (100 μL, 100 mg/mL in 25 mM succinate buffer, pH 5.0), SnCl2 solution (10 μL, 3 mg/mL in 0.1 M HCl) and Na^99mTcO4 (100 μL, 370 MBq) in saline were added into a 5 mL Eppendorf tube. The reaction mixture was kept at room temperature for 10 min. To the reaction mixture above was added 100 μL of the TPPTS solution (50 mg/mL in 25 mM succinate buffer, pH 5.0). The vial containing the reaction mixture was sealed, cramped, and heated at 90°C for 30 min. After cooling to room temperature, sample was analyzed by radio-HPLC. The radio-HPLC method used a HP Hewlett Packard Series 1100 HPLC system equipped with a Radioflow Detector LB509 and a reversed-phase Zorbax SB-C18 column (4.6 mm × 250 mm, 5 μm). The flow rate was 1 mL/min. The gradient mobile phase started with 90% solvent A (0.1% TFA in water) and 10% solvent B (0.1% TFA in acetonitrile) to 30% solvent A and 70% solvent B at 24 min to 0% solvent A and 100% solvent B at 27 min, followed with 90% solvent A and 10% solvent B at 30 min. […]
100 μL of [^99mTc]-(HYNIC-AF7P)(tricine)(TPPTS) was added to either 0.9% physiological saline or 1 mg/mL cysteine solution. […] After 1 h, 2 h, 3 h, 4 h, 5 h and 6 h incubation, the radiochemical purity for [^99mTc]-(HYNIC-AF7P)(tricine)(TPPTS) at each time point was detected by radio-HPLC as described above.

[2] = In vivo biodistribution study (ex vivo organ counting); set-up: species or system mice; details: female, mouse, iv, total radioactivity, mean ± SD, n = 3; for tissue uptake at 0.5 h: 0.5h after i.v.; for tissue uptake at 1 h: 1h after i.v.; for tissue uptake at 2 h: 2h after i.v.; for tissue uptake at 4 h: 4h after i.v.
Experimental: All animal experiments were approved by Jilin University Health Science Center Animal Care and Use Committee. Human breast carcinoma cell line MDA-MB-231 with high MT1-MMP expression and human lung adenocarcinomaepithelial cell line A549 with low MT1-MMP expression were cultured in DMEM medium containing 10% (v/v) fetal bovine serum (Invitrogen) supplemented with penicillin (100 μg/mL) and streptomycin (100 μg/mL) at 37°C with 5% CO2. MDA-MB-231 and A549 tumor models were established by subcutaneous injection of 5×10^6 cells into the upper right front flank of female athymic nude mice (Department of Experimental Animal, Peking University Health Science Center). Tumor growth was monitored by caliper measurements three times a week after the tumors are palpable. The mice were used for SPET/CT imaging when the tumor volume reached about 200 mm3 (about 14 days after tumor inoculations). The tumor volume was determined as the formula: V = a × (b^2)/2, where a and b are the length and width of each tumor in mm respectively. During the injection and image acquisition process, the mice were anesthetized with 2.5% isoflurane in oxygen delivered at a flow rate of 1.5 L/min.
Animals were divided into 4 groups (n = 3) for 4 time points with approximately equal distribution of tumor sizes on the day before the study. At 0.5, 1, 2, and 4 h after intravenous administration of [^99mTc]-(HYNIC-AF7P)(tricine)(TPPTS), MDA-MB-231 tumor bearing mice were euthanized. […] The organ uptake was calculated as a percentage of the injected dose per gram of wet tissue (%ID/g).

[3] = BALB/c nude, blood, read-out: Blood uptake
[4] = BALB/c nude, bone, read-out: Bone uptake
[5] = BALB/c nude, heart, read-out: Heart uptake
[6] = BALB/c nude, kidney, read-out: Kidney uptake
[7] = BALB/c nude, liver, read-out: Liver uptake
[8] = BALB/c nude, lung, read-out: Lung uptake
[9] = BALB/c nude, muscle, read-out: Muscle uptake
[10] = BALB/c nude, spleen, read-out: Spleen uptake
[11] = athymic nude, intestine, read-out: Intestine uptake
[12] = athymic nude, pancreas, read-out: Pancreas uptake

In the case of `CC(C)C[C@H](NC(=O)[C@H](Cc1ccccc1)NC(=O)[C@@H](NC(=O)[C@H](CCCCN)NC(=O)[C@@H](NC(=O)[C@H](CC(N)=O)NC(=O)[C@H](Cc1c[nH]cn1)NC(=O)[C@H](CC(C)C)NC(=O)[C@H](Cc1c[nH]cn1)NC(=O)[C@H](CCCCN)NC(=O)[C@H](Cc1c[nH]c2ccccc12)NC(=O)[C@H](Cc1c[nH]cn1)NC(=O)c1ccc(NN)nc1)[C@@H](C)O)[C@@H](C)O)C(=O)NCCOCCOCC(=O)O` [[^99mTc]-(HYNIC-AF7P)(tricine)(TPPTS), metal not drawn] ({HYNIC}-HWKHLHNTKTFL[AEEA]-OH), the “original form (radiochemical purity) in solution containing excess cysteine” value ([1]; after 6 hours incubation) is reported as 94.2 ±1.72%, the “original form (radiochemical purity) in solution containing excess cysteine” value ([1]; at the beginning) is reported as 96.8 ± 1.52% and the tissue uptake at 0.5 h [2, 3] is reported as 0.36 ± 0.02 %ID/g. It also gave a tissue uptake at 1 h [2, 3] of 0.28 ± 0.01 %ID/g, a tissue uptake at 2 h [2, 3] of 0.2 ± 0.01 %ID/g and a tissue uptake at 4 h [2, 3] of 0.19 ± 0.01 %ID/g. The tissue uptake at 0.5 h [2, 4] was 0.8 ± 0.04 %ID/g, the tissue uptake at 1 h [2, 4] was 0.58 ± 0.03 %ID/g and the tissue uptake at 2 h [2, 4] was 0.44 ± 0.02 %ID/g. For the same molecule, the tissue uptake at 4 h [2, 4] was 0.4 ± 0.02 %ID/g, the tissue uptake at 0.5 h [2, 5] was 2.28 ± 0.16 %ID/g and the tissue uptake at 1 h [2, 5] was 1.67 ± 0.2 %ID/g. It also gave a tissue uptake at 2 h [2, 5] of 0.98 ± 0.07 %ID/g, a tissue uptake at 4 h [2, 5] of 0.64 ± 0.04 %ID/g and a tissue uptake at 0.5 h [2, 6] of 8.86 ± 0.48 %ID/g. For the same molecule, the tissue uptake at 1 h [2, 6] was 7.42 ± 0.43 %ID/g, the tissue uptake at 2 h [2, 6] was 4.84 ± 0.19 %ID/g and the tissue uptake at 4 h [2, 6] was 4.33 ± 0.2 %ID/g. For the same molecule, the tissue uptake at 0.5 h [2, 7] was 5.22 ± 0.17 %ID/g, the tissue uptake at 1 h [2, 7] was 3.9 ± 0.32 %ID/g and the tissue uptake at 2 h [2, 7] was 2.89 ± 0.11 %ID/g. It also gave a tissue uptake at 0.5 h [2, 8] of 2.11 ± 0.06 %ID/g, a tissue uptake at 1 h [2, 8] of 1.45 ± 0.18 %ID/g and a tissue uptake at 2 h [2, 8] of 1.01 ± 0.03 %ID/g. For the same molecule, the tissue uptake at 4 h [2, 8] was 0.7 ± 0.09 %ID/g, the tissue uptake at 0.5 h [2, 9] was 0.9 ± 0.06 %ID/g and the tissue uptake at 1 h [2, 9] was 0.68 ± 0.09 %ID/g. The tissue uptake at 2 h [2, 9] was 0.53 ± 0.04 %ID/g, the tissue uptake at 4 h [2, 9] was 0.52 ± 0.04 %ID/g and the tissue uptake at 0.5 h [2, 10] was 0.9 ± 0.07 %ID/g. The tissue uptake at 1 h [2, 10] was 0.71 ± 0.06 %ID/g, the tissue uptake at 2 h [2, 10] was 0.56 ± 0.06 %ID/g and the tissue uptake at 4 h [2, 10] was 0.41 ± 0.02 %ID/g. For the same molecule, the tissue uptake at 0.5 h [2, 11] was 1.91 ± 0.05 %ID/g, the tissue uptake at 1 h [2, 11] was 1.61 ± 0.07 %ID/g and the tissue uptake at 2 h [2, 11] was 1.52 ± 0.12 %ID/g. For the same molecule, the tissue uptake at 4 h [2, 11] was 1.14 ± 0.08 %ID/g, the tissue uptake at 4 h ([2]; athymic nude, liver, read-out: Liver uptake) was 2.55 ± 0.1 %ID/g and the tissue uptake at 0.5 h [2, 12] was 0.77 ± 0.02 %ID/g. For the same molecule, the tissue uptake at 1 h [2, 12] was 0.52 ± 0.03 %ID/g, the tissue uptake at 2 h [2, 12] was 0.35 ± 0.04 %ID/g and the tissue uptake at 4 h [2, 12] was 0.19 ± 0.02 %ID/g.
